Earlier results on 1 substance are cited in publication PMC3742580.

The term Kd denotes a measure of binding affinity in units of concentration.

This data set has as its target Ras (Homo sapiens) (UniProt P01112).

Sequence of RalGDS RA (Q12967 798-885): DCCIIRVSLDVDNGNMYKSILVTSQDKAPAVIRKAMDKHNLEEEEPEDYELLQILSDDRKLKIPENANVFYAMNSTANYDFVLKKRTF

As to RalGDS RA (from UniProt Q12967), the Kd was 1900 nM.
